Assay results published in the DeepSol protein solubility set.

Test: soluble on expression in E. coli; label from the status in PepcDB or PDB records

Sequence | soluble on expression in E. coli
TGLLLSLIALSLQAAQLTASVDRTRLNAGETVELTLETDDVTQFGKPDMSSLEASFEVRDTRQLNSLKTLDGSSQATTRWIVTLLPRETGSVIIPSLQLGELKSQPLTLQVMQSETKEPTSHLASIFIEASLDQDSVYVQAQAVLTLRVYHSVSLFDDSSLN | soluble
MKIAIASSGTDLGSEVSRFFGRAPYFMIVEMKKGNIESSEVIENPSASASGGAGIRTAQIIANNGVKAVIASSPGPNAFEVLNELGIKIYRATGTSVEENLKLFTEGNLEEIRSPGSGRGRRRR | soluble
MGCMNRENALHIVKQQMHEKRYIHTIGVMETAIELAKLYGVDEKKAEMAAIFHDYAKCRAISEMEEIIKREDLPKDLLCYNKELWHAPVGAYLVEKEVGITDSEILQAITYHTSGHENMTMLDKVIYVADYIEPGRKFPGVEEARKLAYTDINQALLFALKRTIQFLMEKDQTIYPLTFQTYNAVIKEEMSK | not soluble
MEKSVNVIGAGLAGSEAAWQLVKRGVKVDLYEMRPVKQTPAHHTDKFAELVCTNSLRANGLTNAVGVIKEEMRLLDSIIIESADKASVPAGGALAVDRHEFSGYITDKVKNHPLVTIHTEEVTSIPEGPTIIATGPLTSPALAEEIKRLTGEEYLYFYDAAAPIIEKDSIDMDKVYLKSRYDKGEAAYLNCPMSEEEFNTFYEALVTAETAALKEFEKEVFFEGCMPIEVMAKRGIKTMLFGPLKPVGLEDPKTGKRPYAVLQLRQDDAAGTLYNMVGFQTHLKWGEQKRVFGLIPGLENAEIVRYGVMHRNTFINSPTVLEPTYQLKTRNDLFFAGQMTGVEGYVESAASGLAAGINAANFVQDKEPIVFPPESAIGSLANYITSASKKSFQPMNVNFGLFPELPTKIRAKQERNEKLAERALDAIKKVAEQLLEHHHHHH | soluble
SLSAPIRVLVVDDHVLSRRELEVALAAEADIEVVGSAVNSPAAVTLGSESRPDVALVDVEEPHEDGIRAVSAIKRAVSPVRILILATSDDEAHLFGAVRAGAVGYLLKPRPMDELTAAVRSVHNGVSIIGPGVASQVMKEFAAMARSEKSPAMPHLTVRELDVLKLMVGGCANQGISRRLLISENTVKNHIRNILEKLQFSAWEG | soluble
MAMLELLYTALLYLIQPLIWIRLWVRGRKAPAYRKRWGERYGFYRHPLKPGGIMLHSVSVGETLAAIPLVRALRHRYPDLPITVTTMTPTGSERVQSAFGKDVQHVYLPYDLPDALNRFLNKVDPKLVLIMETELWPNLIAALHKRKIPLVIANARLSARSAAGYAKLGKFVRRLLRRITLIAAQNEEDGARFVALGAKNNQVTVTGSLKFDISVTPQLAAKAVTLRRQWAPHRPVWIATSTHEGEESVVIAAHQALLQQFPNLLLILVPRHPERFPDAINLVRQAGLSYITRSSGEVPSTSTQVVVGDTMGELMLLYGIADLAFVGGSLVERGGHNPLEAAAHAIPVLMGPHTFNFKDICARLEQASGLITVTDATTLAKEVSSLLTDAVYRSFYGRHAVEVLYQNQGALQRLLQLLEPYLPPKTHLEHHHHHH | not soluble
MQMDGSKHMGTGAADAPFYLAQGDECDIFTAAYDNNLPVLLKGPTGCGKTRFVAHMAAKLGRPLYTVACHDDLAAADLIGRYLLKGGETVWVDGPLTRAVREGAICYLDEVVEARKDVTVVLHPLTDDRRILPIDRTGEELEAMPGFMLVASYNPGYQNILKTLKPSTRQRFISLEFDFPAPELEARVVSQESGLPLERCKPLIRLAGKLRGLKGQDLEEGVSTRLVVYAATLIAQGMPTERAILAAMVEPLTDDEDIKRGLLDLTTAVFGLEHHHHHH | not soluble
MAVLCGVCGIKEFKYKCPRCLVQTCSLECSKKHKTRDNCSGQTHDPKEYISSEALKQADDDKHERNAYVQRDYNYLTQLKRMVHVQKMDARMKNKRVLGPVGGHNSNFKKRRYDIDEDDRDSTECQRIIRRGVNCLMLPKGMQRSSQNRSKWDKTMDLFVWSVEWILCPMQEKGEKKELFKHVSHRIKETDFLVQGMGKNVFQKCCEFYRLAGTSSCIEGEDGSETKEERTQILQKSGLKFYTKTFPYNTTHIMDSKKLVELAIHEKCIGELLKNTTVIEFPTIFVAMTEADLPEGYEVLHQEPRPLEHTSTLNKFIDNAREEEDAEEDSQPTEEPVQKETQDASDSDSDSDDDYNPGLSMDFLTA | not soluble
GMPRPKLKSDDEVLEAATVVLKRCGPIEFTLSGVAKEVGLSRAALIQRFTNRDTLLVRMMERGVEQVRHYLNAIPIGAGPQGLWEFLQVLVRSMNTRNDFSVNYLISWYELQVPELRTLAIQRNRAVVEGIRKRLPPGAPAAAELLLHSVIAGATMQWAVDPDGELADHVLAQIAAILCLMFPEHDDFQLLQAHA | soluble
MSLEQGIAARKAEAESNASTKGESPDYPGQQVIWRLIQEAGESLRDELRTLAFTLHDHPEEAFEEVFATEEITKLLQNHGFEVQSGVYGVKTALETSFETPGYDPAQHPSIAILAEYDALPEIGHACGHNIIAAAGVGAFLAVTNMIKTAEVKGVDHLDFEGRIVLLGTPAEEGHSGKEYMIRNGAFDGIDASIMMHPFGFDLAEHVWVGRRTMTATFHGVSAHASSQPFMGKNALDAASLAYQGFGVLRQQMPPSDRLHAIITEGGNRPSIIPDTATMSLYVRSLLPEALKDISKRVDDVLDGAALMAGVGVEKQWDVHPASLPVRNNHVLARRWAKTQNLRGRTALSEGILPDTLAASTDFGNVSHLVPGIHPMVKISPENVALHTKEFAAYARTEEAIDAAVDAAIGLAQVAVDALADPQMLIDATLEFTNSGDVLKVGDYLAEGHHHHHH | soluble
FPSQDQYLAGLLETPEQKIRAYVLFAHCFTCGKDVAAASRISRFLVQHGFAVFRFDFTGLGNSDGDFANTNFSSNTEDLVSAAYFLEQNYEAPQLLIGHSLGGAAVLAMASQLPKVKGVVTIGAPYEASHVIHNFDAHLEKIDQSGSAKVSLGSREFTIKKQFLDDLRNQTTEHIQHLNKALLVLHSPIDLTVDISDAEKIYKAAKHPKSFVSLDTADHLLSKSIDSEYVAQTISGWASRYIP | not soluble
MSLGKPLIALGLEGSANKLGVGIILHDTNGSAKILANVRHTYITPPGQGFLPSDTAKHHRAWIIPLIKQAFAEAKISFKDIDCICFTKGPGIGAPLNSVALCARMLSLIHKKPLVAVNHCIGHIEMGREITGAQNPVVLYVSGGNTQVIAYSEKKYRIFGETLDIAIGNCLDRFARIIGLSNAPSPGYNIMQEAKKGKRFIELPYTVKGMDCSFSGLLSGVEAAATELLDPKNPSSVTKQDLCYSLQETGFAMLVEITERAMAHIRADSVLIVGGVGCNERLQQMMAEMSSDRGADVFSTDERFCIDNGIMIAQAGLLAYKTGDRCAVAESTITQRYRTDDVYISWRDEGHHHHHH | soluble
TQDWNWNIGYNISYNKNKITKMTFNDDPNYAGVIHGGIDGGTGYNALIHRVGEAFNSFYVFEQIYGPDGKPIEGAYVDQNGDNQINDADLICFKKAAPDVFMGLTSQLSYKNWDFSFALRGSFGNYVYNNVQSNREAYEGANMYDQTGFLKNRLTSARSTDFKNAQYRSSYYVQNASFVRMDNISLGYTFNKLFNDKQSARVYATVQNPFVITKYKGLDPEISGEGIDNNIYPRPRVFMIGLNLNF | not soluble
MSQQKIGVLLVNLGTPEHPTAPAIRKFLKPFLADSRVIDYPKFLWKPILYSFILPFRPRKVKPLYQHVWTNEGSPLYANAIGQEKALQAHFDQSEHGVLVRATMAYSKPSISDVVDEFLKEKVAKMIVLPLFPQYSSTTTAAIFDAFAQSLKKKKDIPPFDFIHHYYERPSYIQALAQTIHLQENEHLLFSFHGIPQRYVIEGDYYTEHCQQTAQLIAVAAGLSEEQWQVSYQSRFGPEEWTRPYTDETLIQLPKQGKKKLAVICPGFAADCLETLEEIDITNRKHFMAAGGQAYRYIPALNASPAHIQLLAELISERL | not soluble
AKIIFIEHNGTRHEVEAKPGLTVMEAARDNGVPGIDADCGGACACSTCHAYVDPAWVDKLPKALPTETDMIDFAYEPNPATSRLTCQIKVTSLLDGLVVHLPEKQI | soluble
MRKKKDGQNLPDFRKNPPKLDKKAYEKELKRLQAELVDLQQWVVETGARVVIVMEGRDAAGKGSAIKRITQYLNPRSARIEALPTPNSREKGQWYFQRYIEKLPTAGEIVIFDRSWYNRAGVERVMGFCTSQEYRRFLHQAPIFERLLVEDGIHLRKYWFSVSDEEQIERFEDRLSDPLRRWKLSPMDLQSITRWEDYSRAKDEMFIHTDIPSAPWYTVESEDKKRSRINVISHLLSTIPYEKIDRPLPEIPHRPDSESDYVRPPRDEFRYVPDVAAHLEEERIKKEEKAKKAKKPAKAAGKNSDKQKSSGGKGKKKSKK | not soluble
MTRGLDYYEVMGLTRSANDIDIRRAYRRLALKYHPDINKDGAAGDEFLRICEAYEVLCDPKTKGFYDLYGEDALKDGISDGNGGLKGPMYRFNPEESPKAVFERFFGTANPYEALEALSNQFESMTSEEAPARGKNKVYPLELTLEEIFHGCLKKVAHKRKVLLFSGEYVEEERQLTVDVKPGLPTGTRFVFEGEGNKTPKKEPGPVVFVLKPKPHPRFVRRGSDLVHKVTLPLHHALIGTTLDIRTLDDRDLKVPISDIMRPGSSLTVPGEGMPLPATPSARGNLVIEIDLLFPTHLTETQKMLLRSAFF | soluble
MSLHLKVFAKPKITYVENQTAMELEEQVTLTCEASGDPIPSITWRTSTRNISSEEKASWTRPEKQETLDGHMVVRSHARVSSLTLKSIQYTDAGEYVCTASNTIGQDSQSMYLEVQYAPKLQGPVAVYTWEGNQVNITCEVFAYPSATISWFRDGQLLPSSNYSNIKIYNTPSASYLEVTPDSENDFGNYNCTAVNRIGQESLEFVLVQADTPSSPSIDQVEPYSSTAQVQFDEPEATGGVPILKYKAEWRAMGEEVWHSKWYDAKEASMEGIVTIVGLKPETTYAVRLAALNGKGLGEISAASEFKTQPVREPSAEGHHHHHH | not soluble
MGSDKIHHHHHHAQKKDFSYKFYGQIRTDLYYNSRANEETVDGLFYMYPKDEVFDSNGRDLNATANGSFYTLYTRLGLDVKGPKLGRAMTSAKVEADFRGSGTSYSTIRLRHAYLNLDWGRSALLLGQTWHPLFGDVSPQILNLSVGAPFQPFSRAPQIRYRYTHKGFQLTGAAIWQSQYLSQGIVGKSQTYIKNSCVPEFYLGLDYKANGWIAGAGIELLSLKPRTESKVEDQVYKVNERITTLSYEGHVKYSNKDWFVGAKTVLGSNLTQTSMLGGFGIKSIDNRTGEQKYTPIRVSSSWLNVVYGQKWKPGIFLGYVKNMGTSDALASNQVYGTGTNVDQVVTAGAELTYNVNHWKFGVEYTYTSAAYGSLYLKNGKIIDTHSVGNNRIVGVAMFMF | not soluble
MPGELLGAHYGHCFGCGEEQSHGLHLAARAGQGVSITAEFTVQPAHQGAPGLAHGGVLATALDETLGSLNWLLRTIAVTGRLETDFVRPVPVGTVLYLEAEVTAVAGRKIYSTATGRIGGPEGPVAVRADALFVEVKVDHFTDNGRQEEIRAAMNDPDQLRRARAFEVNPLEHHHHHH | not soluble
MNQIAIQETIQRLINQQVVPGVAWGTITEDSLSEQYTGFLGNTGPFARQKISSASLYDLASLTKVIGTTNRMLQLIDTNQLTFSTTVGEILPDYQGLSCSIGELLLHQSGLPADVVDKKNVTKKSLQEIILTHSLSERGKTTYSDLGYYLLGEIIQVLDRCSLEESFQTYVFQPMNLQHTSFTVSDFAQAVPTEITKQRGVIQGVVHDSKAYQLKAPIGSAGLFATLPDLLTFVQCFMNNRYPSGKPLFSEKMFTALWSMNQGGRTFGWEVKKTQAGADYLYHTGFTGTAIGMKKETKEALILLTNRIHPTREERGFLKARTKIYQQYF | not soluble
